Patent publication US20240035036A1 (UNIVERSITE DE GENEVE, published 2024)

T1: Flagellin Modification Protein (FlmG) from Caulobacter crescentus (Caulobacter crescentus, UniProt P21296 1-596)
T1 construct: Natural full-length glycosyltransferase, expressed in cells (C. crescentus, S. fredii NGR234, E. coli); It has an N-terminal TPR domain and a C-terminal GT-B-like glycosyltransferase domain; also called FlbA; CC_1457
T1 sequence: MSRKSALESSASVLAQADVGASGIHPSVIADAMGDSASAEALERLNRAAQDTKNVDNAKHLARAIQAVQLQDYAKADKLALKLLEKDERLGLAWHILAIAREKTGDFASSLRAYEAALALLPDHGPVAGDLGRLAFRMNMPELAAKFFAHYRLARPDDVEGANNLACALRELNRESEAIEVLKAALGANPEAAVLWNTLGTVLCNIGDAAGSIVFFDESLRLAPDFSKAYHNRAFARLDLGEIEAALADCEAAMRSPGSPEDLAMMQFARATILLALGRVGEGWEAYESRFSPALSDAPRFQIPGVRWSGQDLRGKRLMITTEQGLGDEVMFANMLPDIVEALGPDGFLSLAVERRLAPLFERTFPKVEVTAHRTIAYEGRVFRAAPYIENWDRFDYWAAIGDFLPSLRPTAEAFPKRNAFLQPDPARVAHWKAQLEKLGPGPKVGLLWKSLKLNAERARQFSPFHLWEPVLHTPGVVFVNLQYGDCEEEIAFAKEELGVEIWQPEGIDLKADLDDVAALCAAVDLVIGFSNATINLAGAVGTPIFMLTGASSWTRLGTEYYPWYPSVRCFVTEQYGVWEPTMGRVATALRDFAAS

T2: FljK flagellin protein from Caulobacter crescentus
T2 chain: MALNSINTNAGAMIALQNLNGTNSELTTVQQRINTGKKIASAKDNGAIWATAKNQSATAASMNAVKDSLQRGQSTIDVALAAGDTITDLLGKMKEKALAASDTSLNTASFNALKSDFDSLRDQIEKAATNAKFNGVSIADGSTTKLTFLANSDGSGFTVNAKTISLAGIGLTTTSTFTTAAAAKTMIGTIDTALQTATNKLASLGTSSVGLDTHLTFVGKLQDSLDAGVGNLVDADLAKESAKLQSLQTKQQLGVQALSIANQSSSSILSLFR

B1: FljK flagellin protein from Caulobacter crescentus (other)
chain: T2 chain
notes: In the glycosylation experiments it was expressed unfused in cells; also called CC_1461
B2: Flagellin Modification Protein (FlmG) from Caulobacter crescentus (protein)
chain: T1 sequence

Key:
[1] = biological target: T1, Flagellin Modification Protein (FlmG) …; assay: summary of example 1 (BACTH and domain analysis)
[2] = biological target: T2, FljK flagellin protein from Caulobacter …

Binder | binding result [1] | FljK glycosylation (migration on anti-FljK immunoblot) in E. coli co-expressing FljK, FlmG and the synthetic flm operon [2] | flagellin modification (SDS-PAGE mobility shift of FljK by immunoblot) on co-expression in S. fredii NGR234 [2]
B1 | binds |  | 
B2 |  | in the presence of pUCITD-flm FljK migration is shifted towards higher molecular weight, as in Caulobacter crescentus wild-type (WT) cells | upon co-expression of FlmG, FljK shifted to a species with higher molecular mass
